The target of assay [1] is full length human Shh expressed on the cell surface (human) (UniProt Q15465). Briefly: cell-based or functional assay.
Assay [2] concerns the target Shh-N in conditioned medium (human) (UniProt Q15465). Briefly: cell-based or functional assay.

B1: rmHIP (protein, UniProt Q7TN16 18-678, looked up)
chain: FFEGDAKFGERNEGSGARRRRCLNGNPPKRLKRRDRRVMSQLELLSGGEILCGGFYPRVSCCLQSDSPGLGRLENKIFSATNNSECSRLLEEIQCAPCSPHSQSLFYTPERDVLDGDLALPLLCKDYCKEFFYTCRGHIPGLLQTTADEFCFYYARKDAGLCFPDFPRKQVRGPASNYLGQMEDYEKVGGISRKHKHNCLCVQEVMSGLRQPVSAVHSGDGSHRLFILEKEGYVKILTPEGELFKEPYLDIHKLVQSGIKGGDERGLLSLAFHPNYKKNGKLYVSYTTNQERWAIGPHDHILRVVEYTVSRKNPHQVDVRTARVFLEVAELHRKHLGGQLLFGPDGFLYIILGDGMITLDDMEEMDGLSDFTGSVLRLDVDTDMCNVPYSIPRSNPHFNSTNQPPEVFAHGLHDPGRCAVDRHPTDININLTILCSDSNGKNRSSARILQIIKGRDYESEPSLLEFKPFSNGPLVGGFVYRGCQSERLYGSYVFGDRNGNFLTLQQSPVTKQWQEKPLCLGASSSCRGYFSGHILGFGEDELGEVYILSSSKSMTQTHNGKLYKIVDPKRPLMPEECRVTVQPAQPLTSDCSRLCRNGYYTPTGKCCCSPGWEGDFCRIAKCEPACRHGGVCVRPNKCLCKKGYLGPQCEQVDRNVRRVTR
Take B1: in assay [1], the % Inhibition of Gli1 reporter, Co-Culture N = 1, 4 µg/ml came out at 124%; the % Inhibition of Gli1 reporter, Co-Culture N = 2, 4 µg/ml is 96%; the % Inhibition of Gli1 reporter, Co-Culture N = 3, 4 µg/ml is 121%. For the same molecule, in assay [2], the % Inhibition of Gli1 reporter, Conditioned Media N = 1, 4 µg/ml was 103% and the % Inhibition of Gli1 reporter, Conditioned Media N = 2, 4 µg/ml was 112%.
